# B1: Neutrophil cytosol factor 1 (Homo sapiens), P14598 (parent)
# chain: MGDTFIRHIALLGFEKRFVPSQHYVYMFLVKWQDLSEKVVYRRFTEIYEFHKTLKEMFPIEAGAINPENRIIPHLPAPKWFDGQRAAENRQGTLTEYCSTLMSLPTKISRCPHLLDFFKVRPDDLKLPTDNQTKKPETYLMPKDGKSTATDITGPIILQTYRAIANYEKTSGSEMALSTGDVVEVVEKSESGWWFCQMKAKRGWIPASFLEPLDSPDETEDPEPNYAGEPYVAIKAYTAVEGDEVSLLEGEAVEVIHKLLDGWWVIRKDDVTGYFPSMYLQKSGQDVSQAQRQIKRGAPPRRSSIRNAHSIHQRSRKRLSQDAYRRNSVRFLQQRRRQARPGPQSPGSPLEEERQTQRSKPQPAVPPRPSADLILNRCSESTKRKLASAV
# Variants of: B1
# Settings: with ncf2_human NCF2, P19878
# Sequence of ncf2_human NCF2, P19878 (P19878 whole entry): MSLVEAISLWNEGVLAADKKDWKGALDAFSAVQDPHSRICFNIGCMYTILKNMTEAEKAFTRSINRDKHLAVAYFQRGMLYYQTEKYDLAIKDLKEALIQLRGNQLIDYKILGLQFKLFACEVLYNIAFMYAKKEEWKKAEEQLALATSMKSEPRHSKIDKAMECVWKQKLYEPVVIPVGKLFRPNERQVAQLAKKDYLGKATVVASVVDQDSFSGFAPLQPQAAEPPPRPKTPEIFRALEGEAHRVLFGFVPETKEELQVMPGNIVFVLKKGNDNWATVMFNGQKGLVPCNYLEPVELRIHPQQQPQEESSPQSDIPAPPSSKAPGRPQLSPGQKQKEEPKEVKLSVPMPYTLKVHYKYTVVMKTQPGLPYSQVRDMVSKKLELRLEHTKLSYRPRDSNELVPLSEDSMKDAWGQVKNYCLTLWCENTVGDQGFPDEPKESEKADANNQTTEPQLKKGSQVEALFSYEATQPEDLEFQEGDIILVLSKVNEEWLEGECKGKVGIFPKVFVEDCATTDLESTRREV
row,Variant,effect of a mutation on the interaction
1,P366A,disrupting interaction
2,P363A,decreasing interaction
3,R368A,decreasing interaction

# Continued, values first:
row,effect of a mutation on the interaction,Variant
1,decreasing interaction,K385E
2,decreasing interaction,K383E

# Reference: IntAct's records for PubMed 19129478
